# Source: paper PMC12212125, “Constitutively active Arabidopsis cryptochrome two alleles identified using yeast selection and deep mutational scanning” (The Journal of Biological Chemistry, 2025)
# B1: Arabidopsis thaliana cryptochrome 2 (CRY2, UniProt Q96524), residues 1-535 fused after the Gal4 DNA-binding domain (Gal4BD-CRY2(535)); mutagenized window 321-412, Q96524 (parent)
# chain: MKMDKKTIVWFRRDLRIEDNPALAAAAHEGSVFPVFIWCPEEEGQFYPGRASRWWMKQSLAHLSQSLKALGSDLTLIKTHNTISAILDCIRVTGATKVVFNHLYDPVSLVRDHTVKEKLVERGISVQSYNGDLLYEPWEIYCEKGKPFTSFNSYWKKCLDMSIESVMLPPPWRLMPITAAAEAIWACSIEELGLENEAEKPSNALLTRAWSPGWSNADKLLNEFIEKQLIDYAKNSKKVVGNSTSLLSPYLHFGEISVRHVFQCARMKQIIWARDKNSEGEESADLFLRGIGLREYSRYICFNFPFTHEQSLLSHLRFFPWDADVDKFKAWRQGRTGYPLVDAGMRELWATGWMHNRIRVIVSSFAVKFLLLPWKWGMKYFWDTLLDADLECDILGWQYISGSIPDGHELDRLDNPALQGAKYDPEGEYIRQWLPELARLPTEWIHHPWDAPLTVLKASGVELGTNYAKPIVDIDTARELLAKAISRTREAQIMIGAAPDEIVADSFEALGANTIKEPGLCPSVSSNDQQVPSAV
# Variants of: B1
# Experiment: yeast two-hybrid growth selection (MaV203; Gal4BD-CRY2(1-535) library x Gal4AD-CIB1; URA3 reporter on SC -Trp/-Leu/-Ura) in the dark, deep sequencing before and after selection, Enrich2 scoring; three independent screens (one at 48 h, two …)
# Settings: with CIB1 (CRYPTOCHROME-INTERACTING BASIC-HELIX-LOOP-HELIX 1), dark (no blue light), screens 1, 3 and 4, Svar > 0 = enriched under dark selection for CRY2-CIB1 two-hybrid growth (URA3 reporter), < 0 = depleted, relative to wild type (whose scores are 0). 'The Enrich2 software calculates, parent: 0, not an affinity, scale: Enrich2 score, numbering: uniprot, sequence starts at 1
row,Variant,enrichment
1,W376L,0.0656
2,W376G,-0.7
3,W376C,-0.498
4,W376S,-1.68
5,W376R,-1.3
6,Q398K,2.11
7,Q398P,-0.641
8,Q398R,2.52
9,Q398W,1.99
10,Q398H,1.96
11,Q398E,1.41
12,Q398L,1.96
13,M354R,-1.57
14,M354T,0.533
15,M354V,0.0609
16,M354L,0.399
17,G377E,-0.85
18,G377R,-1.08
19,G377V,-0.508
20,P373S,-0.52
21,P373T,0.0155
22,P373Q,-0.644
23,P373L,-0.618
24,H408R,2.75
25,H408P,1.5
26,H408Y,-0.432

row,Variant,enrichment
1,H408L,1.61
2,F369S,-0.00513
3,F369I,-0.158
4,F369C,0.578
5,F369L,0.468
6,F369V,1.03
7,F369T,-2.07
8,G402R,1.69
9,G402W,-0.485
10,G402K,2.35
11,G402E,0.772
12,G402V,-0.0472
13,L371F,3.11
14,L371R,1.98
15,L371V,1.25
16,L371P,-1.4
17,L371S,1.98
18,L371I,-0.7
19,L371H,2.16
20,M378R,2.81
21,M378T,2.32
22,M378K,2.66
23,M378V,0.308
24,M378I,-0.703
25,M378A,0.99
26,M378L,-0.703

row,Variant,enrichment
1,V362I,0.151
2,V362G,-1.16
3,V362A,-0.304
4,V362D,-1.36
5,V367M,1.21
6,V367L,1.55
7,V367G,-0.377
8,V367E,-0.759
9,V367A,-0.78
10,P405A,0.742
11,P405H,1.08
12,P405R,1.02
13,P405L,2
14,P405T,0.224
15,H355Y,-0.714
16,H355L,-0.0587
17,H355Q,-0.322
18,H355R,0.547
19,H355P,0.249
20,H355D,-1.37
21,K379Q,-0.304
22,K379E,-0.743
23,K379N,-0.188
24,K379T,0.481
25,K379M,-1.02
26,K379L,0.965

row,Variant,enrichment
1,K379A,1.5
2,K379R,0.0968
3,Y399I,2.5
4,Y399F,1.58
5,Y399N,2.41
6,Y399C,1.43
7,Y399D,1.99
8,Y399S,2.82
9,Y399H,1.23
10,E391G,-1.1
11,E391Q,-0.786
12,E391K,-0.425
13,E391A,-0.592
14,E391V,-0.645
15,E391D,-0.531
16,W397C,-0.144
17,W397G,-0.823
18,W397L,-0.429
19,W397S,-1.08
20,W397R,-1.01
21,D393Y,-0.612
22,D393V,0.508
23,D393N,1.16
24,D393G,2.3
25,D393S,2.65
26,D393E,1.18

row,Variant,enrichment
1,D393A,1.64
2,W374C,1.8
3,W374L,1.65
4,W374R,1.5
5,W374G,0.75
6,C392R,-1.14
7,C392G,-0.321
8,C392F,-0.128
9,C392Y,-1.08
10,C392W,-0.824
11,C392S,-0.465
12,D383E,-0.349
13,D383A,-0.952
14,D383G,-0.813
15,D383V,-0.206
16,D383N,-0.384
17,D383Y,-0.379
18,R359G,-0.386
19,R359I,-0.665
20,R359S,-0.603
21,L390F,1.66
22,L390S,-1.09
23,L390V,0.548
24,L390M,-0.808
25,L390W,2.28
26,L395R,-0.209

row,Variant,enrichment
1,L395Q,2.71
2,L395P,-0.953
3,L395H,-0.769
4,L395F,2.13
5,W382R,-1.18
6,W382C,-0.025
7,W382L,-0.17
8,W382G,0.784
9,K375T,-0.845
10,K375V,1.44
11,K375I,0.307
12,K375E,2.2
13,K375R,-0.0254
14,K375Q,0.228
15,K375S,0.796
16,D389Y,-0.572
17,D389A,-0.573
18,D389G,-1.23
19,D389E,-0.54
20,D389V,-0.759
21,D389N,-0.535
22,S403G,-0.408
